Laboratory results reported in the supplement of paper PMC10899765.
Where “and” joins values, the source holds several entries; their conditions need not be identical. Equal entries are not always repeated.

Each sequence was assayed on MCF10A (assay: 5+ nucleoli phenotype percent effect (relative to siNT 0% and siKIF11 100%); higher = more cells with five or more nucleoli). Conditions: 20 nM; 72 h.
Method: (§1)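 After 72 h, cells were fixed and stained with Hoechst and anti-fibrillarin, and nucleoli per nucleus were counted with CellProfiler. Values are plate-adjusted percent effect for the one-nucleolus and 5+ nucleoli phenotypes, normalised to siNT (0%) and to the positive controls siNOL11 or siKIF11 (100%), as the mean of biological triplicates. Percent viability is the nuclei count relative to siNT.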
For UUAGUCCUGCCUGUAGGUUUA [hsa-miR-4540], the “5+ nucleoli phenotype percent effect” value was -37.9%. For AGUUAGGAUUAGGUCGUGGAA [hsa-miR-1258], the “5+ nucleoli phenotype percent effect” value was -19.1%. For GAAGGCAGCAGUGCUCCCCUGU [hsa-miR-3714], the “5+ nucleoli phenotype percent effect” value was -29.2%. GGGGUGGUCUGUUGUUG [hsa-miR-4483] was tested, and the “5+ nucleoli phenotype percent effect” value was 44.6%. With ACUGGACUUGGAGUCAGAAGG [hsa-miR-378a-3p] the “5+ nucleoli phenotype percent effect” value was 22.6%. “AACAUCACAGCAAGUCUGUGCU [hsa-miR-499a-3p]” was tested, and the “5+ nucleoli phenotype percent effect” value was -38.3%. UGCCCAUGCCAUACUUUUGCCUCA [hsa-miR-4641] was tested, and the “5+ nucleoli phenotype percent effect” value was 7.52%. For “CUCCUCUGUUUUCUUUCCUAG [hsa-miR-6780a-3p]”, the “5+ nucleoli phenotype percent effect” value was -34.9%. In the case of UAGGAUGGGGGUGAGAGGUG [hsa-miR-2392], the “5+ nucleoli phenotype percent effect” value is reported as 17.7%. “AGCUGUAAUUAGUCAGUUUUCU [hsa-miR-1537-5p]” was tested, and the “5+ nucleoli phenotype percent effect” value was 31.8%. In the case of GAGGCUGAAGGAAGAUGG [hsa-miR-4419b], the “5+ nucleoli phenotype percent effect” value is reported as -30.7%. In the case of AGUGGGGAACCCUUCCAUGAGG [hsa-miR-491-5p], the “5+ nucleoli phenotype percent effect” value is reported as -46.6%. For UAACAGUCUCCAGUCACGGCC [hsa-miR-212-3p], the “5+ nucleoli phenotype percent effect” value was 29.7%. In the case of UGUCACCCGCUCCUUGCCCAG [hsa-miR-6879-3p], the “5+ nucleoli phenotype percent effect” value is reported as -23.3%. UCAGGCCUCUUUCUACCUU [hsa-miR-4650-5p] was tested, and the “5+ nucleoli phenotype percent effect” value was 12.7%. In the case of GUUGUGUCAGUUUAUCAAAC [hsa-miR-599], the “5+ nucleoli phenotype percent effect” value is reported as 29.3%. “AAAAGUAAUUGUGGUUUUUGCC [hsa-miR-548d-5p]” was tested, and the “5+ nucleoli phenotype percent effect” value was 49.4%. With “AGCCCGCCCCAGCCGAGGUUCU [hsa-miR-4707-3p]” the “5+ nucleoli phenotype percent effect” value was -25.2%. “CAUGACGUCACAGAGGCUUCGC [hsa-miR-4757-3p]” was tested, and the “5+ nucleoli phenotype percent effect” value was 36.1%. With GGGAAGAGCUGUACGGCCUUC [hsa-miR-6077] the “5+ nucleoli phenotype percent effect” value was -35.5%. “GGCAGGAGGGCUGUGCCAGGUUG [hsa-miR-4722-5p]” was tested, and the “5+ nucleoli phenotype percent effect” value was 13.5%. With “UUGGGAUCAUUUUGCAUCCAUA [hsa-miR-450b-3p]” the “5+ nucleoli phenotype percent effect” value was -2.46%. With UGCAGGACCAAGAUGAGCCCU [hsa-miR-1286] the “5+ nucleoli phenotype percent effect” value was 1.93%. For CCAUGAAGCAGUGGGUAGGAGGAC [hsa-miR-8060], the “5+ nucleoli phenotype percent effect” value was 14.9%. In the case of “UUUGAGGCUACAGUGAGAUGUG [hsa-miR-1304-5p]”, the “5+ nucleoli phenotype percent effect” value is reported as 15.4%. In the case of CCUCUAGAUGGAAGCACUGUCU [hsa-miR-517-5p], the “5+ nucleoli phenotype percent effect” value is reported as 23.9%. In the case of “GUGAGUGUGGAUUUGGCGGGGUU [hsa-miR-6790-5p]”, the “5+ nucleoli phenotype percent effect” value is reported as -26%. GCGGCGAGUCCGACUCAU [hsa-miR-4285] was tested, and the “5+ nucleoli phenotype percent effect” value was 32.6% and 20.7%. For AAAAACUGUAAUUACUUUU [hsa-miR-548f], the “5+ nucleoli phenotype percent effect” value was 53.7% and 60% and 60.4%.

These sequences were tested on MCF10A (assay: one-nucleolus phenotype percent effect (relative to siNT 0% and siNOL11 100%); higher = more cells with one nucleolus (ribosome biogenesis inhibition)). Conditions: 20 nM; 72 h.
Method: as §1
In the case of “CCACGUGCUUCUCUUUCCGCAG [hsa-miR-6767-3p]”, the “one-nucleolus phenotype percent effect” value is reported as 13.2%. With GCGACUCUGAAAACUAGAAGGU [hsa-miR-4431] the “one-nucleolus phenotype percent effect” value was -23.7%. With UCCCUGGAGUUUCUUCUU [hsa-miR-4308] the “one-nucleolus phenotype percent effect” value was -7.67%. With UGAGGUAGUAGUUUGUACAGUU [hsa-let-7g-5p] the “one-nucleolus phenotype percent effect” value was -16.7%. GGGGGUCCCCGGUGCUCGGAUC [hsa-miR-615-5p] was tested, and the “one-nucleolus phenotype percent effect” value was -20%. With UUCACAGUGGCUAAGUUCCGC [hsa-miR-27a-3p] the “one-nucleolus phenotype percent effect” value was -7.64%. In the case of “UAGGUAGUUUCCUGUUGUUGGG [hsa-miR-196b-5p]”, the “one-nucleolus phenotype percent effect” value is reported as -8.68%. CCUCAGAUCAGAGCCUUGC [hsa-miR-4330] was tested, and the “one-nucleolus phenotype percent effect” value was -32.8%. ACUCCAGUUUUAGUUCUCUUG [hsa-miR-3925-3p] was tested, and the “one-nucleolus phenotype percent effect” value was -22.1%. With “UACCUGGGAGACUGAGGUUGGA [hsa-miR-7851-3p]” the “one-nucleolus phenotype percent effect” value was -15.4%. With AAUAAUACAUGGUUGAUCUUU [hsa-miR-369-3p] the “one-nucleolus phenotype percent effect” value was -9.36%. In the case of GACACGGGCGACAGCUGCGGCCC [hsa-miR-602], the “one-nucleolus phenotype percent effect” value is reported as -18.7%. CAGUGGUUUUACCCUAUGGUAG [hsa-miR-140-5p] was tested, and the “one-nucleolus phenotype percent effect” value was 20.1%. CUCCCACUUCCAGAUCUUUCU [hsa-miR-3156-3p] was tested, and the “one-nucleolus phenotype percent effect” value was -4.85%. For CAAAAGUGAUCGUGGUUUUUG [hsa-miR-548t-5p], the “one-nucleolus phenotype percent effect” value was -10.3%. In the case of AAACUCUACUUGUCCUUCUGAGU [hsa-miR-618], the “one-nucleolus phenotype percent effect” value is reported as 10.9%. For “CUCCUGACUCCAGGUCCUGUGU [hsa-miR-378a-5p]”, the “one-nucleolus phenotype percent effect” value was 10.6%. ACUGCAGUGAAGGCACUUGUAG [hsa-miR-17-3p] was tested, and the “one-nucleolus phenotype percent effect” value was -6.73%. In the case of AAAAGCAUCAGGAAGUACCCA [hsa-miR-4422], the “one-nucleolus phenotype percent effect” value is reported as -9.65%. With UCACUACCUGACAAUACAGU [hsa-miR-4999-3p] the “one-nucleolus phenotype percent effect” value was -25.2%. “AAGAGAACUGAAAGUGGAGCCU [hsa-miR-3925-5p]” was tested, and the “one-nucleolus phenotype percent effect” value was -13%. UCUGGGAGGUUGUAGCAGUGGAA [hsa-miR-3192] was tested, and the “one-nucleolus phenotype percent effect” value was 62.5%. For UCAAGUGUCAUCUGUCCCUAG [hsa-miR-6513-3p], the “one-nucleolus phenotype percent effect” value was -7.47%. For GCUGGGCAGGGCUUCUGAGCUCCUU [hsa-miR-612], the “one-nucleolus phenotype percent effect” value was 14.9%. With GGCUAGCAACAGCGCUUACCU [hsa-miR-621] the “one-nucleolus phenotype percent effect” value was 15.2%. For UCUUCAACCUCAGGACUUGCA [hsa-miR-676-5p], the “one-nucleolus phenotype percent effect” value was -20.5%. For “UUCCAGCCCUGGUAGGCGCCGCG [hsa-miR-6720-5p]”, the “one-nucleolus phenotype percent effect” value was 45%. With “ACCAAGUCUGCGUCAUCCUCUC [hsa-miR-3691-3p]” the “one-nucleolus phenotype percent effect” value was -5.26%. UGGAGAGAAAGGCAGUUCCUGA [hsa-miR-185-5p] was tested, and the “one-nucleolus phenotype percent effect” value was 5.33%. In the case of “GCAGAUCAGGACUGUAACUCACC [hsa-miR-1288-5p]”, the “one-nucleolus phenotype percent effect” value is reported as -14.5%. With “AGGACUGAUCCUCUCGGGCAGG [hsa-miR-4740-5p]” the “one-nucleolus phenotype percent effect” value was 47.7%. With UUAGUCCUGCCUGUAGGUUUA [hsa-miR-4540] the “one-nucleolus phenotype percent effect” value was 8.27%. In the case of AGUUAGGAUUAGGUCGUGGAA [hsa-miR-1258], the “one-nucleolus phenotype percent effect” value is reported as 6.84%. In the case of GAAGGCAGCAGUGCUCCCCUGU [hsa-miR-3714], the “one-nucleolus phenotype percent effect” value is reported as 19.5%. For GGGGUGGUCUGUUGUUG [hsa-miR-4483], the “one-nucleolus phenotype percent effect” value was -25.2%. ACUGGACUUGGAGUCAGAAGG [hsa-miR-378a-3p] was tested, and the “one-nucleolus phenotype percent effect” value was 2.26%. “AACAUCACAGCAAGUCUGUGCU [hsa-miR-499a-3p]” was tested, and the “one-nucleolus phenotype percent effect” value was -7.15%. With UGCCCAUGCCAUACUUUUGCCUCA [hsa-miR-4641] the “one-nucleolus phenotype percent effect” value was 5.53%. “CUCCUCUGUUUUCUUUCCUAG [hsa-miR-6780a-3p]” was tested, and the “one-nucleolus phenotype percent effect” value was 25.3%. In the case of UAGGAUGGGGGUGAGAGGUG [hsa-miR-2392], the “one-nucleolus phenotype percent effect” value is reported as -3.85%. For “AGCUGUAAUUAGUCAGUUUUCU [hsa-miR-1537-5p]”, the “one-nucleolus phenotype percent effect” value was -20.9%. For GAGGCUGAAGGAAGAUGG [hsa-miR-4419b], the “one-nucleolus phenotype percent effect” value was 21.1%. AGUGGGGAACCCUUCCAUGAGG [hsa-miR-491-5p] was tested, and the “one-nucleolus phenotype percent effect” value was 47.1%. With UAACAGUCUCCAGUCACGGCC [hsa-miR-212-3p] the “one-nucleolus phenotype percent effect” value was -19.5%. UGUCACCCGCUCCUUGCCCAG [hsa-miR-6879-3p] was tested, and the “one-nucleolus phenotype percent effect” value was 3.65%. In the case of UCAGGCCUCUUUCUACCUU [hsa-miR-4650-5p], the “one-nucleolus phenotype percent effect” value is reported as -4.86%. For GUUGUGUCAGUUUAUCAAAC [hsa-miR-599], the “one-nucleolus phenotype percent effect” value was -13.5%. In the case of “AAAAGUAAUUGUGGUUUUUGCC [hsa-miR-548d-5p]”, the “one-nucleolus phenotype percent effect” value is reported as -15.4%. For “AGCCCGCCCCAGCCGAGGUUCU [hsa-miR-4707-3p]”, the “one-nucleolus phenotype percent effect” value was 19.7%. With “CAUGACGUCACAGAGGCUUCGC [hsa-miR-4757-3p]” the “one-nucleolus phenotype percent effect” value was -14.4%. GGGAAGAGCUGUACGGCCUUC [hsa-miR-6077] was tested, and the “one-nucleolus phenotype percent effect” value was 32.5%. For “GGCAGGAGGGCUGUGCCAGGUUG [hsa-miR-4722-5p]”, the “one-nucleolus phenotype percent effect” value was -6.08%. “UUGGGAUCAUUUUGCAUCCAUA [hsa-miR-450b-3p]” was tested, and the “one-nucleolus phenotype percent effect” value was -1.71%. With UGCAGGACCAAGAUGAGCCCU [hsa-miR-1286] the “one-nucleolus phenotype percent effect” value was 5.46%. For CCAUGAAGCAGUGGGUAGGAGGAC [hsa-miR-8060], the “one-nucleolus phenotype percent effect” value was 6.65%. In the case of “UUUGAGGCUACAGUGAGAUGUG [hsa-miR-1304-5p]”, the “one-nucleolus phenotype percent effect” value is reported as 0.012%. CCUCUAGAUGGAAGCACUGUCU [hsa-miR-517-5p] was tested, and the “one-nucleolus phenotype percent effect” value was 2.26%. With “GUGAGUGUGGAUUUGGCGGGGUU [hsa-miR-6790-5p]” the “one-nucleolus phenotype percent effect” value was 18.2%. In the case of GCGGCGAGUCCGACUCAU [hsa-miR-4285], the “one-nucleolus phenotype percent effect” value is reported as -17.6% and -20.2%. With AAAAACUGUAAUUACUUUU [hsa-miR-548f] the “one-nucleolus phenotype percent effect” value was -26.8% and -24.7% and -21.2%.
